For 2 sequences, Kd results are on record in paper PMC5295013.

For orientation: Kd means the concentration at which binding is half-saturated. Read a high Kd as a looser complex.

In the series the test system is Gp90 D234A (DNA polymerase, exonuclease-deficient) (Pseudomonas aeruginosa phage PaP1). Briefly: SPR. Conditions: SPR (Biacore 3000, SA chip, steady-state fit): 40 mM Tris-HCl pH 7.5, 10 mM DTT, 50 mM potassium glutamate, room temperature, 20-600 nM protein, ternary assays …. In general terms: In SPR one partner is held on a chip, and binding of the other changes the refractive index at the surface.

As to “TTTGCTACAGAGTTATGGTGACGATACGTC / TGAATTCTAATGTAGTATAGTAATCCGCTCTATCGGACGTATCGTCACCATAACTCTGTAGC [30-mer(dd)/62-mer 8-oxoG primer-template]”, the Kd runs as follows: (30 mM Mg2+, 1 mM dATP (ternary complex, mispair), 8-oxoG at template position 35 from 5' end (28th from 3' end, first templating base), primer 3'-terminal ddC) 45 nM; (30 mM Mg2+, 1 mM dCTP (ternary complex), 8-oxoG at template position 35 from 5' end (28th from 3' end, first templating base), primer 3'-terminal ddC) 34 nM; (no Mg2+, no dNTP (binary complex), 8-oxoG at template position 35 from 5' end (28th from 3' end, first templating base), primer 3'-terminal ddC) 116 nM.
On to “TTTGCTACAGAGTTATGGTGACGATACGTC / TGAATTCTAATGTAGTATAGTAATCCGCTCTATCGGACGTATCGTCACCATAACTCTGTAGC [30-mer(dd)/62-mer G primer-template]”, for which the dissociation constant Kd runs as follows: (30 mM Mg2+, 1 mM dCTP (ternary complex), primer 3'-terminal dideoxycytidine (ddC, chain terminator)) 11 nM; (no Mg2+, no dNTP (binary complex), primer 3'-terminal dideoxycytidine (ddC, chain terminator)) 108 nM.
